Reference: IntAct's records for PubMed 34830280

B1: Centrosome-associated zinc finger protein Cp190 (Drosophila melanogaster (Fruit fly)), Q24478 (parent)
chain: MGEVKSVKVDNWGVFFLQKLQNFFNKTDYCDLTLQFRDNSQLKVHRLVLSACTDYFNVLEQTCEIVDDALIMPNEFQADVVVPIVNFMYTGTLEFELKMYGKLLRTAKEMNMTVLLKLLEAHRRTMENVNRQQRPPSPKGIRRRTVGQPSSGLPQQRVLGPSPQSRNVATPIAQRANTQRGSTGNTMSRTSGGSNRSPYGDSSNVKQEPTSPFEQLRKGYNNNKRPAQTSLLSPPSKKPSLEEVKEFAEQQRMRKQIAAEYGDNDPEYDGGMLYDDVHAGDDDDDDMPPQPSTSKQQSPQGTQTQLEHGSTTIILKQDSPSQTPTIIVKDSSNAKLNHTKIIAEVLRQYPHIVKGHKNIKLKIMPNTPAAPTEKSAPATVKPPANQSSATTSPHKKLHVSFKADKSTPLITAQQKAASSQQKSGTSQTTGNQGTGANPPANTAAAQKRRIDSKTMHALIAQGAENTTGPWLCLRCGVNGRPISIPSYRGFRRHLINTHKETIDPALCEHCGWRSVNNRELHFHMYMEHQTKSLLYTFAECALCNQSYRTKGELEAHINEVHTDDNKQQCIYCNKVFEQELQLYRHMKSYHKEQALEDGIIDETDEEFLGSQDEEEEAEGDEEQEPEQTGKVRILSDISLPATSAITVQQAQQEQLQEEDVEQVQQEVKFVGADGNEVELTDEQRKEILSQLNQQQAGATAGGVVMVLSEPEAEHVKQETDEKSLAGTEEEYDDSQIYSELGAADSVESAKKNIADESKESIDNLEWAENLIAESEEQSNKEPKSDKPRDDISEKLKELTGDWTEDENDDDVDDKPATAELASELANKDPEPTVHEEEDDIDLALQSLHKGPEEATEEKASEESVTSADDAVDAVPNINSQPEKMDVDSEAADEKASKAEVQIKKEAELENDQEEFIKEDSPIPHSDSVAELREAVTASEGEDDVHLEADNIRKELLDELIAEAEKPDQEKDIVQSEENATTEALDRSVTDEDDLVPPTQVSTEQMEIDEPAAEKAAENNEDTRTADEKEAVEDKPNQTQDVTTAEKPTLESAKAGDEATSGEAASVDKVKSLISEWGDDDEDEDENGVSAAAKEEL
partner: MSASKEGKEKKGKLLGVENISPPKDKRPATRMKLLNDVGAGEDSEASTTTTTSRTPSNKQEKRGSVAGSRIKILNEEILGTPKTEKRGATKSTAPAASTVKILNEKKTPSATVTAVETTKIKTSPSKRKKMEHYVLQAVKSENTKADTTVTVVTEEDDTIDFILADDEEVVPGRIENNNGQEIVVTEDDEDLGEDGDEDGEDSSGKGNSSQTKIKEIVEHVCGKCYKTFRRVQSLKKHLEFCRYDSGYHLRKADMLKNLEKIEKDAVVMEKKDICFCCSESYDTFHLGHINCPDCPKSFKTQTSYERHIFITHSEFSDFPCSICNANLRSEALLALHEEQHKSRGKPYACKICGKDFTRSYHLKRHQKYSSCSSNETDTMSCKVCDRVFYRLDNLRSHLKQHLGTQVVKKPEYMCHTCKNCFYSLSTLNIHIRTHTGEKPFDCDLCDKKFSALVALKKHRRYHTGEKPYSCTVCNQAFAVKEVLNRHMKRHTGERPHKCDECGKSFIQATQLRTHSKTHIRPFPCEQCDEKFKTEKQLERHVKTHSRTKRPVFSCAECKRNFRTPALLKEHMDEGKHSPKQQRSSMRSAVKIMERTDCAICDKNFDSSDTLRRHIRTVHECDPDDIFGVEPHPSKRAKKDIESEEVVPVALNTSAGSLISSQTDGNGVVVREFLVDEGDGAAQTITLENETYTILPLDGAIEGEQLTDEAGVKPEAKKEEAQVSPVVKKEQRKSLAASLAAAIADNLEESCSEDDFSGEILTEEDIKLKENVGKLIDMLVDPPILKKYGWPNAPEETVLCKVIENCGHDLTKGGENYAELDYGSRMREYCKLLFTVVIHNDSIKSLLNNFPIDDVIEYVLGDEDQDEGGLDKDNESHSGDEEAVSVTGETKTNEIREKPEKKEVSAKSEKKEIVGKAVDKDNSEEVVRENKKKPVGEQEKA
B2: Centrosome-associated zinc finger protein Cp190 (Drosophila melanogaster (Fruit fly)), Q24478 (parent)
chain: B1 chain
partner: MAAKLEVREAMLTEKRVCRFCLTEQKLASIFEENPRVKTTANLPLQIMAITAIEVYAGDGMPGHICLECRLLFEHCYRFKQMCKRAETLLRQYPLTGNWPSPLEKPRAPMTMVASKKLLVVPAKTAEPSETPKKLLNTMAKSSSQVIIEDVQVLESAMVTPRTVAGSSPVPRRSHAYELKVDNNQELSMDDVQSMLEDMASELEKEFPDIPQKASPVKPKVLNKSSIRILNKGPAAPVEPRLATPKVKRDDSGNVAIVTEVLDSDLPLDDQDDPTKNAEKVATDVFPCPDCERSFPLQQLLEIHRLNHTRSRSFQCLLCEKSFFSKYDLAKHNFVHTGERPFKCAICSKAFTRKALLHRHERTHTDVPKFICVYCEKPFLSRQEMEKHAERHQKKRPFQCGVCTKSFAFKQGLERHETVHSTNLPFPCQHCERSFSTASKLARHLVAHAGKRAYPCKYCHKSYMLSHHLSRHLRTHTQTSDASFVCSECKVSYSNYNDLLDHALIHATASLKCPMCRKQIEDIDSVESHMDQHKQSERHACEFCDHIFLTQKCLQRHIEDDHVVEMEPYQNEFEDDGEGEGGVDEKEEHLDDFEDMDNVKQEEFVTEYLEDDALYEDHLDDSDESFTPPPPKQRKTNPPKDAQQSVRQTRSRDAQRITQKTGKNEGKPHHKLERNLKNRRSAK

Variants of: B1
Conditions: with suhw_drome su(Hw)

| effect of a mutation on the interaction | Variant |
| --- | --- |
| with no effect | K117S |
| with no effect | V114N |

The next lines start with the variant.

| Variant | effect of a mutation on the interaction |
| --- | --- |
| V7A | with no effect |
| K19A | with no effect |
| V114A | with no effect |

Variants of: B1
Conditions: with suhw_drome su(Hw)
Remark: another data set of the same source

| effect of a mutation on the interaction | Variant |
| --- | --- |
| disrupting interaction strength | V7A |

Variants of: B1
Conditions: with suhw_drome su(Hw)
Remark: another data set of the same source

| effect of a mutation on the interaction | Variant |
| --- | --- |
| with no effect | L118A |
| with no effect | F15A |

Variants of: B1
Conditions: with suhw_drome su(Hw)
Remark: another data set of the same source

| effect of a mutation on the interaction | Variant |
| --- | --- |
| disrupting interaction strength | L118A |
| disrupting interaction strength | K117S |
| disrupting interaction strength | V114N |

The remaining lines, values behind:

| Variant | effect of a mutation on the interaction |
| --- | --- |
| K19A | disrupting interaction strength |
| F15A | disrupting interaction strength |
| V114A | disrupting interaction strength |

Variants of: B2
Conditions: with pita_drome pita

| effect of a mutation on the interaction | Variant |
| --- | --- |
| disrupting interaction strength | V7A |
| disrupting interaction strength | L118A |

Variants of: B2
Conditions: with pita_drome pita
Remark: another data set of the same source

| effect of a mutation on the interaction | Variant |
| --- | --- |
| with no effect | V7A |

Variants of: B2
Conditions: with pita_drome pita
Remark: another data set of the same source

| effect of a mutation on the interaction | Variant |
| --- | --- |
| with no effect | V114N |
| with no effect | L118A |
| with no effect | K117S |

Second part, the variant before the results:

| Variant | effect of a mutation on the interaction |
| --- | --- |
| V114A | with no effect |
| F15A | with no effect |
| K19A | with no effect |

Variants of: B2
Conditions: with pita_drome pita
Remark: another data set of the same source

| effect of a mutation on the interaction | Variant |
| --- | --- |
| disrupting interaction strength | V114N |
| disrupting interaction strength | K117S |

The remaining lines, values behind:

| Variant | effect of a mutation on the interaction |
| --- | --- |
| V114A | disrupting interaction strength |
| F15A | disrupting interaction strength |
| K19A | disrupting interaction strength |
